A protein production outcome set (Wang et al. 2014)

Experiment: label from the status in PepcDB records

| Sequence | protein production |
| --- | --- |
| MIGQAILLGCIAFIAQSEYALGTSLLSRPIVTGLFVGIVLGDVKTGVIMGATLELAFIGSFSVGASIPPDVVTGGILGTAFAITAGAGTETALVLGLPIATLTLILKNIYLGLLIPIMSQKADQYAEEGAYKGVERMHLLAGFGLSFMLALIVTISFAVGSNTIKGLLDLIPEFIQHGLSVATGIIPALGFAMLARLLINKQVAPYFFLGFVLMAYFKLPVTGVAILGAITAVIVVNIMNYAKGKNETIQTTSGEVIDDDEDF | failed |
| NTRLRRTKEVNEILGIDPVDKNLLVNQFVKWDPKEDKHIEVSMPKKLEKMADFLGVSVQEVYDEMLSRKRYLELMLKRGIRNYKEVTRYIHAYYRNPELAMTKME | failed |
| MSPFTGSAAPTPEWRHLRVEITDGVATVTLARPDKLNALTFEAYADLRDLLAELSRRRAVRALVLAGEGRGFCSGGDVDEIIGATLSMDTARLLDFNRMTGQVVRAVRECPFPVIAALHGVAAGAGAVLALAADFRVADPSTRFAFLFTRVGLSGGDMGAAYLLPRVVGLGHATRLLMLGDTVRAPEAERIGLISELTEEGRADEAARTLARRLADGPALAHAQTKALLTAELDMPLAAAVELDASTQALLMTGEDYAEFHAAFTEKRPPKWQGR | not failed |
| MISVFDIYKIGVGPSSSHTVGPMKAGKEFIDDLRAMGKLRDITKITVDVYGSLSLTGKGHHTDIAIIMGLAGNSPEKVDIDSIPGFIARVEETERLPVGMHCHTVSFPREGGMNFHKTNLELHENGMQIHAWIDDEKVYSKTYYSIGGGFIVDEENFGK | not failed |
| MKESRNTLNSSELNTTTSWSKHDTHWVLSLFGTAVGAGILFLPINLGIGGFWPLVAMAFLAFPMTYLAHRGLARFVLSSKIKNADFTDVVEEHFGAKAGRSISLLYFLSIFPILLIYGVGITNTVDSFMVNQAGMEALPRELLSGVLVFALIAIMMAGEKVMLRAFAVMVYPLVAILAFLSFYLMPNWTMPVLDTPDMGAFASTMWLAVPVVIFSFSHAAAISSFANVQRRHYGDDADAKAELILRCTSIMLIAFVLLFVFSCVLALSPEQLAQAKAQNVSVLSYLANATDNPFIATLGPLVAFVAITSSFLGHFLGARESLNGLITKHSNLSETRVDRISVVVLFLSIWAAAIMNPSILGMMEALSGPVIAMILFIMPMLAVHKIESMKQYRGKLSTYFVLITGIVAVSALVFSLLS | not failed |
| MQMMSELFASGTVVDAVLIFLLVEAIGVIGYWLWRKHGIAPADFLPGMISGALMLLALRAVLAGAGWMVPTLCLLAAGGAHLVDVLRRWR | failed |
| MQTQFQFINDCLIENQPLWRFEPFQSSIQPSLPWQETHPQLCQWLESLSPSQIETLKADPDLALDEISVFLPDLPSLLRHTQLESMALDGLALERGLDSGIPGRKLEQITAMGEAAIQSHQGEEWLEWCSGKGYLGRILTTQTNQPVTSFEYQQALCDSGQQAANEHHWKMTFIQGDAFDPQTKAVFKPTQHAVALHACGDLHVRLMEYGSEAGIAAMTISPCCYHLIQSETYQALSQSVRASELILSKHELRIPLQQTVTGGERVRRHRQQEMVFRLGFDLLTREILGVDEYQPVPSIRKSQLSDGFEALCLWVAKEKGIEINQAIDFAEFEKRAIKRFWHMERMSLVQLVFQRPLEIWLALDKVLYLEERGYRVRLAEFCPKSVTPRNILICAYKN | failed |
| MLKSIRYLLTIIICLFVGACQHTQDNEEPNSIRKVNLSKAASFNVQLGLGYLKQGDRPRAKKKLLTALEQQPDSADVNAALAYYFEQTKELEQAKKFYHKAITLSQNGGAQLNNYGAFLCRQGDYKNAETYFLKAVKDQNYVHTSGAYENAGLCAMAIPDHDKAILYFTKALNQDPSRKESLYELVKLQSKIGHDKEALELLQKHADLVLNDKVMLALAKDIANRTGQYTLAAEYENSFNKLEQTNNISGVNDEYNSSNG | failed |
| MVDGEVEILRGYELRLLRCTVSFPQTGSPLESQPLDGTQSGTHPHDSLITSLLSSIEAGDYLGALSSDATKLILGDSELNLVDTVDSAEQVYSELLDKVESFVVNDSSDEIDKARRAVLVMCLAIATALWFTRCNLTGSTEGSTKCSLPLRVSESKELVEWENWAKIQLMSVGSDLLGKFSNLQHLVFARLLLFKLKDLLFEITSTETFEVRSISWWLVRVLLIHQRVLQERSSSLFEMLQVYMAEAIDHFGELEKVKSYWGANLLEDEASSITSTIHLEACVLQYIYGRIDPSRLQLESAKAAASLEFSVTGALGFRTIHQVDPKAQMVLVANTSSSNGDVRLASEKADVGPYEAWGGEAPEVYMTPKLVNNESEAGKDSVPLKPVEQALILAQCLLIERGSRHDEMQRWDMAPYIEAIDSQKSTYFVLRCFCDLLRVRWESTRGRTKGRALEMMDKLVGAINKSDPGVSNRIPLCYAVHLPTIPALRKEYGELLVSCGLVGEAITIFESLELWDNLIYCYCLLGKKSAAVDLINARLLERPNDPRLWCSLGDVTINDSCYEKALEVSNDKSVRAKRALARSAYNRGDFEKSKMLWEAAMALNSLYPDGWFALGAAALKARDVQKALDAFTFAVQLDPDNGEAWNNIACLHMIKKKSKESFIAFKEALKFKRDSWQMWENFSHVAMDVGNIDQAFEAIQQILKMSKNKRVDVVLLDRIMTELEKRNSACKSSSSSTETEASSDESTETKPCTATPAETQRQLELLGKVIQQIVKTESTAEIWGLYARWSRIKGDLTVCSEALLKQVRSYQGSEVWKDKERFKKFARASLELCRVYMEISASIGSKRELFTAEMHLKNTIKQATVSFLDSEELKELESCLEEVRNVMQKSEEEYRDTKT | failed |
| MNSTEITQNTDVPSHFRSIKTFVLRTGRMTEGQKRNYEAFYQKWCIPYTESPIDFQTLFQNDNPVIIEIGFGMGTATAQIAEDNPDKNYLGIEVFKAGVGKLLGEIEEKKLNNLRIIEHDAIEVLENMINNESVDGFHIFFPDPWQKKRNHKRRLVRRPRTDLLSKKLKDGGYIYMVTDWENYAEDAFEQLSETPNLKSKYEKFAPSQSWRPTTKFEKKGLKKEHVINELIFEKD | failed |
| MSEIDANYRALAQQVADKVAGRVIALDRLPESLLTAYRSLCDELLADRDGRFTRAWDQLPDSASSLFERCVFHGFYLANAWIQLSIVARDISELQDTDEAIAEQEYSGLYVRVAEAALKESVKKLKKARTDRSMYNSMREVMGI | not failed |
| DKIHMLKQQNIIGIGTHNGITTIHTTNHKYETTEPLNRYEKRLNPTYFIRIHRSYIINTKHIKEVQQWFNYTYMVILTNGVKMQVGRSFMKDFKASIGLL | failed |
| MSETATWQPSASIPNLLKRAAIMAEIRRFFADRGVLEVETPCMSQATVTDIHLFPFETRFVGPGHSQGINLYLMTSPEYHMKRLLAAGCGPVFQLCRSFRNEEMGRHHNPEFTMLEWYRPHYDMYRLMNEVDDLLQQVLDCQPAESLSYQQAFQRHLEIDPLSADKTQLREAAAKLDLSNIADTEEDRDTLLQLLFTMGVEPHIGKEKPTFIYHFPASQASLAQISTEDHRVAERFEVYYKGIELANGFHELTDAREQQQRFEQDNRKRAARGLPQQPIDQNLLDALAAGLPDCSGVALGVDRLVMLALGAESLADVIAFTVDRA | not failed |
| RKKPVSQSLEFPTRYSPYRPYRCVHQGCFAAFTIQQNLILHYQAVHKSDLPAFSAEVEEE | not failed |
| MSLKQKILIVEDSMTIRRMLIQAIAQQTGLEIDAFDTLEGARHCQGDEYVVALVDLTLPDAPSGEAVKVLLERGLPVVILTADISEDKREAWLEAGVLDYVMKDSRHSLQYAVGLVHRLYLNQQIEVLVVDDSRTSRHRTMAQLRKQLLQVHEASHAREALATLEQHPAIRLVLVDYYMPEIDGISLVRMLRERYSKQQLAIIGISVSDKRGLSARYLKQGANDFLNQPFEPEELQCRVSHNLEALEQFNSEGHHHHHH | not failed |
| MKNPVPRIIKTPVIAMYHDDRREELTIEVELSDVKDENITLMMHENSFYIKAFSETVEYLGSFFLDGPVDPEKAVAANNNGMLTIKVPYKEGFTCARFIHVD | failed |
| MARKKAMKVLRKQKKRENMQRFTQKQNIGRACLTAKEFRLLQRMSHSSKALRNVGLYTMKQSYLNHNRMATVKEVDTAMQNDMNYSGIQSNSVQAIRRSLFTEVKSFFKALEQWKKNPEKFTGRPKFPNYSRSTDKRIIEIYQVPKVDENGYWIIPMNVAFRKKFGSIQIRMPKNLRNKKISYIEIVPKQKGRFFEVHYTYEMHVSQMKKPSTTTSNALSCDLGVDRLVSCVTHTGDAFLIDGKKLKSINQYFNKMICNLQQKNMDNGISKRIVTNKMAALWHKRERQINGYIAQTVGLLFKKVKEFDIDTIVIGYNAGWKQNSHMGKKNNQKFVQIPFQKLMAAIENKCIKEGIRFFKQEESYTSKASFLDKDPVPVWSKNDRTQYRFSGKRITRGLYQSKAGTCIHADINGAMNILKKSGVVELDDNLKVKTPILLEVQKRKAIASRIA | failed |
| SFPNRRIVTTVFNDEGIQFLVTRYIKALNPPQQLLDIFLHNSNATFDLIARFVSLIPFVPNTPDENDGSDIWMTSEHCISLAIGNKEEHAILLCNFFLYFGKKALVLLGTSVLEGHVAYVVTQETNEYLLWNPSTGQCYKQFDPFCPLKSVDCLFDDRNVWFNIQQNNTPMAVFFDYSKESFWKQLLPKNVQGTKIQSIQVTGFPIQMPYIDVQSIIDAVYQTGIHSAEFPQTEFALAVYIHPYPNNILSVWVYLASLVQHQ | not failed |
| MAQVFNFSSGPAMLPAEVLKLAQQELCDWHGLGTSVMEISHRGKEFIQVAEEAEQDFRDLLNIPSNYKVLFCHGGGRGQFAGVPLNLLGDKTTADYVDAGYWAASAIKEAKKYCAPQIIDAKITVDGKRAVKPMREWQLSDNAAYLHYCPNETIDGIAIDETPDFGPEVVVTADFSSTILSAPLDVSRYGVIYAGAQKNIGPAGLTLVIVREDLLGKAHESCPSILDYTVLNDNDSMFNTPPTFAWYLSGLVFKWLKAQGGVAAMHKINQQKAELLYGVIDNSDFYRNDVAQANRSRMNVPFQLADNTLDKVFLEESFAAGLHALKGHRVVGGMRASIYNAMPIEGVKALTDFMIDFERRHG | not failed |
| MATLDERARPWARKSRWNGYAYEFLLFGLKQAWACLFGGLMLALLVGTKLFWPEAAPIARYDFLVVAAIAIQASLLALKLERWDEALVIFMFHVVGTIMELFKTAHGSWIYPEDSVLRIGGVPLFTGFMYACVGSYIARIWRLFDITFIRYPPFWTTHILAVLIYANFFTHHYMIDIRVGLFALSVLLFGRTWFVFTPDQTARRMPMLMGAVLVSLFIWFAENLGTFAGAWIYPNQADGWQMVPFEKMGAWYLLMLISFVLVTLVHPPVHACVARIRQGIWRAA | failed |
| MTLLFRYLFRNNLQVILPTLAVGTGLYLLSDLFDRLDDILEAGVPGNVAIWYFVAKTPLIISQILPAVFLLAALIQLCLMSRDRELMALQAGGVSFGAIARFFVVYGLLWAVLQLGFSQVLGVAGERESARIWQEQVRGRTPGTRDLTNVWFTDDNHVIHLEVVTPALRKGQGFAAYGLAADGIHIDTVIRAKAFTGTAGTWKLQDVEVFSTRDFGHAKLPEMSIAIGQDPQDFAVIDPGADPQRLPLWQLGDAVEKLRTAGSNVEGLRTAWHMKLAYAASLVVMGLLAVAMVTWRDNIYLATGLALVFTFLFYTMFTIGSTLGQKGIVSPPIAAWGADILVGVVASARLLLVLRPRSLR | failed |
| MSRTTPYRLDDQIGFILRQANQRYAALFANGIGNGLTPTQWAALVRLGETGPCPQNQLGRLTAMDAATIKGVVERLDKRGLIQRSADPDDGRRLLVSLSPAGRAELEAGLAAAREINRQALAPLSLQEQETLRGLLARLI | not failed |
| MRRAEIPMNPLINHPAILFVVMLVVMSSATALGALVLRRIRPLPAEVKDDFGIVQGATLTLLALLIGFTLSMAVGRYDQRKNLEEEEANAIGTEYLRADLIEGPEAEQVKALLVRYLDQRILYYRTRDSAQLQEIEAATSQIEDEMWKLMRSAARAKPTPITGLVVSGMNDVINSQGYAEAAWINRIPVSAWGLMIVIAFFSSMMQGYGARSENAKIILMLVLPFTVSLSLALISDIDSPRGGLIRVLPQNLLSLQASLKR | failed |
